Substrate in this data set: O=C(O)[C@H](O)[C@@H](O)[C@@H](O)[C@H](O)CO
As to the kind of experiment: cells, lysate or membranes. The class given is cell-based, Escherichia coli. The conditions noted are these: pH 6.5, 150 mM KCl, 25 °C, 30 s uptake, labelled compound, H+ symport.

Broadly, the Km is the substrate concentration at which the rate is half of its maximum.

B1: DgoT (Escherichia coli) (protein)
chain: MVSGFAMPKIWRKLAMDIPVNAAKPGRRRYLTLVMIFITVVICYVDRANLAVASAHIQEEFGITKAEMGYVFSAFAWLYTLCQIPGGWFLDRVGSRVTYFIAIFGWSVATLFQGFATGLMSLIGLRAITGIFEAPAFPTNNRMVTSWFPEHERASAVGFYTSGQFVGLAFLTPLLIWIQEMLSWHWVFIVTGGIGIIWSLIWFKVYQPPRLTKGISKAELDYIRDGGGLVDGDAPVKKEARQPLTAKDWKLVFHRKLIGVYLGQFAVASTLWFFLTWFPNYLTQEKGITALKAGFMTTVPFLAAFVGVLLSGWVADLLVRKGFSLGFARKTPIICGLLISTCIMGANYTNDPMMIMCLMALAFFGNGFASITWSLVSSLAPMRLIGLTGGVFNFAGGLGGITVPLVVGYLAQGYGFAPALVYISAVALIGALSYILLVGDVKRVG
notes: full-length in pQE60, C-terminal thrombin site and decahistidine tag (kept in uptake assays, cut for crystallization); expressed in E. coli dgoT knock-out (Keio, lambda-DE3) for uptake, E. coli C41 for purification
Regarding B1, the Michaelis constant (Km) was 18 ± 4 µM.

The values are drawn from PMC6532931, “Structures suggest a mechanism for energy coupling by a family of organic anion transporters” (PLoS Biology, 2019).
